{
  "source": "patent US20240301053A1",
  "about": "“COMBINATION THERAPIES WITH VENETOCLAX AND TIM-3 INHIBITORS” (Novartis AG, priority 2019, published 2024)",
  "molecules": {"B1": {"name": "control Galectin-9 protein: control recombinant human Galectin-9 protein, unlabeled (protein)", "chain": "AFSGSQAPYLSPAVPFSGTIQGGLQDGLQITVNGTVLSSSGTRFAVNFQTGFSGNDIAFHFNPRFEDGGYVVCNTRQNGSWGPEERKTHMPFQKGMPFDLCFLVQSSDFKVMVNGILFVQYFHRVPFHRVDTISVNGSVQLSYISFQPPGVWPANPAPITQTVIHTVQSAPGQMFSTPAIPPMMYPHPAYPMPFITTILGGLYPSKSILLSGTVLPSAQRFHINLCSGNHIAFHLNPRFDENAVVRNTQIDNSWGSEERSLPRKMPFVRGQSFSVWILCEAHCLKVAVDGQHLFEYYHRLRNLPTINRLEVGGDIQLTHVQT"}},
  "biological_target": "T1, TIM-3/Galectin-9 interaction (Homo sapiens, UniProt Q8TDQ0)",
  "T1 construct": "TIM-3 fusion protein (R&D Systems) was coated on a standard MesoScale 96 well plate; purchased R&D Systems",
  "assay": "plate-based (MesoScale) TIM-3/Galectin-9 competition assay",
  "assay_type": "binding",
  "conditions": "TIM-3 fusion protein coated at 2 μg/ml; labeled Galectin-9 100 nM; serial dilutions",
  "description": "TIM-3 fusion protein (R&D Systems) was coated on a standard MesoScale 96 well plate (Meso Scale Discovery) at 2 μg/ml in PBS (Phosphate Buffered Saline) and incubated for six hours at room temperature. The plate was washed three times with PBST (PBS buffer containing 0.05% Tween-20) and blocked with PBS containing 5% Probumin (Millipore) overnight at 4° C. After incubation, the plate was washed three times with PBST and unlabeled antibody (F38-2E2 (BioLegend); MBG453; MBG453 F(ab′)2; MBG453 F(ab); or control recombinant human Galectin-9 protein) diluted in Assay Diluent (2% Probumin, 0.1% Tween-20, 0.1% Triton X-100 (Sigma) with 10% StabilGuard (SurModics)), was added in serial dilutions to the plate and incubated for one hour on an orbital shaker at room temperature. The plate was then washed three times with PBST, and Galectin-9 labeled with MSD SULFOTag (Meso Scale Discovery) as per manufacturer's instructions, diluted in Assay Diluent to 100 nM, was added to the plate for one hour at room temperature on an orbital shaker. The plate was again washed three times with PBST, and Read Buffer T (1×) was added to the plate. The plate was read on MA600 Imager, and competition was assessed as a measure of the ability of the antibody to block Ga19-SULFOTag signal to TIM-3 receptor.",
  "data": [
    {"molecule": "B1", "values": [
      {"measurement": "ability to block Gal9-SULFOTag signal to TIM-3 receptor (interaction between TIM-3 and Galectin-9)", "result": "did not"}
    ]}
  ]
}
